Data from IntAct's records for PubMed 20124439.

B1: Glycosylphosphatidylinositol-anchored high density lipoprotein-binding protein 1 (Homo sapiens), Q8IV16 (parent)
chain: MKALGAVLLALLLFGRPGRGQTQQEEEEEDEDHGPDDYDEEDEDEVEEEETNRLPGGRSRVLLRCYTCKSLPRDERCNLTQNCSHGQTCTTLIAHGNTESGLLTTHSTWCTDSCQPITKTVEGTQVTMTCCQSSLCNVPPWQSSRVQDPTGKGAGGPRGSSETVGAALLLNLLAGLGAMGARRP
partner: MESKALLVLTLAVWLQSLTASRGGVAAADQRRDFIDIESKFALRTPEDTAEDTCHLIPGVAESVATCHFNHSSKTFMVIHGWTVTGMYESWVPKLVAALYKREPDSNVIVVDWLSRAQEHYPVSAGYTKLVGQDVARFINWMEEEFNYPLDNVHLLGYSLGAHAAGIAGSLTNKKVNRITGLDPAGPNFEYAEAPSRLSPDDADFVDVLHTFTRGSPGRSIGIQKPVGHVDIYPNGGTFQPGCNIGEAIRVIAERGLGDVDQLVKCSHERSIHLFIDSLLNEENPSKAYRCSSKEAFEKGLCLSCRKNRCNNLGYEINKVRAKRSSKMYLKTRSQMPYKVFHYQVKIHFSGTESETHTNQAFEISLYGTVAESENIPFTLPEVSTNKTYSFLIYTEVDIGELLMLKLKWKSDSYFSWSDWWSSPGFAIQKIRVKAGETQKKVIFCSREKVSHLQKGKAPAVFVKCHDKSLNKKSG

Variants of: B1
Conditions: with lipl_human LPL

effect of a mutation on the interaction | Variant
decreasing interaction | MKALGAVLLALLLFGRPGRGQTQQEEEEEDEDHGPDDYDEEDEDEVEEEETNRLPGGRSRVLLRCYTCKSLPRDERCNLTQNCSHGQTCTTLIAHGNTESGLLTTHSTWCTDSCPPITKTVEGTQVTMTCCQSSLCNVPPWQSSRVQDPTGKGAGGPRGSSETVGAALLLNLLAGLGAMGARRP [Q115P]
decreasing interaction | MKALGAVLLALLLFGRPGRGQTQQEEEEEDEDHGPDDYDEEDEDEVEEEETNRLPGGRSRVLLRYYTCKSLPRDERCNLTQNCSHGQTCTTLIAHGNTESGLLTTHSTWCTDSCQPITKTVEGTQVTMTCCQSSLCNVPPWQSSRVQDPTGKGAGGPRGSSETVGAALLLNLLAGLGAMGARRP [C65Y]
